Measurements taken from doi:10.1101/2023.12.01.569544.

Target: HIV-1 capsid A14C/E45C/W184A/M185A (HIV-CA) (HIV-1)
Test: SEC

HIV-1 capsid A14C/E45C/W184A/M185A (HIV-CA) (natural protein)
stoichiometry N: 6
